Results taken from the nanobody polyreactivity screen of Harvey et al. (2022).

Test: yeast display, Sf9 membrane polyspecificity reagent, FACS + sequencing; frameworks hold sequencing errors
Outline: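 Galactose induction of a Saccharomyces cerevisiae BJ5465 synthetic nanobody display library ran 36–48 hours. The cells were then stained for 1 hour at 4 °C with 10% biotinylated, detergent-solubilized Sf9 membrane reagent, pulled down on streptavidin microbeads and FACS-sorted into low and high (top ~1%) gates on expression and reagent-binding fluorescence. Labels for polyreactivity follow the gate of origin.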

Sequence | polyreactivity (PSR sort gate)
QVQLVESGGGLVQAGGSLRLSCDASGSIFKYYAMGWYRQAPGKEREWVAAITIGGNTNYADSVKGRFTISRDNAKNTVYLQMNSLKPEDTAVYYCATGGYYSAIVYGGYDYWGQGTQVTVSS | low polyreactivity
QVQLVESGGGLVQAGGSLRLSCDASGSIIRYYAMGWYRQAPGKERELVAAINSLGGTTYYADSVKGRFTISRDNAKNTVYLQMNSLKPEDTAVYYCAAGYPPLHTSVQQTAHYGLDYCGQGTQVTVSS | high polyreactivity
QVQLVESGGGLVQAGGSLRLSCDASGSNFFYARGWSRQAPGRERELVADITYTGGSKYADSVKGRFTISRDNAKNTVDLQLNILKPEDTAVSYCAKLDGGLFDYWGQGTQVNVSS | low polyreactivity
QVQLVESGGGLVQAGGSLRLSCDASGSTFDNYAMGWYRQAPGKERELVAAITTGVTTYYADSVKGRFTISRDNAKNTVYLQMNSLKPEDTAVYYCAADYVSYSQARHEYGYWGQGTQVTVSS | low polyreactivity
QVQLVESGGGLVQAGGSLRLSCDASGSTFDQYVMGWYRQAPWKERELVAAISVSGGRTYYADSVKGRFTISRDNAKNTVYLQMKSLKPDDTAVYYCNAPKRYSSIGYDYWGQGTQVTVSS | high polyreactivity
QVQLVESGGGLVQAGGSLRLSCDASGSTFDYYAMGWYRQAPGKERELVAGIDSAGSTNYADSVKGRFTISRDNAKNTVYLQMNSLKTGRYRGLYCNVGKTITTYAFPTFDYCGQGTQVTVSS | low polyreactivity
QVQLVESGGGLVQAGGSLRLSCDASGSTFRGYAMGWYRPAPGKERELVAAITSDGSTNYADSEKGRFTISRDNAKNTVYLQMNSLKPEDTAVYYCNVKATRKWWDRRVYRYNYWGQGTQVTVSS | high polyreactivity
QVQLVESGGGLVQAGGSLRLSCDASGSTFRGYAMGWYRQAPGKERDLVAAISRYGGSTYYADSVKGRFTISRDNAKTTVYIQMNSLKPEDTAGYYCNARSSKRSSRGYDYWGQGTQVTVSS | high polyreactivity
QVQLVESGGGLVQAGGSLRLSCDASGSTFSPYAMRWYRQAPGKERELVAAINYSSGSTYYADSVKGRFTISRDNAKNTVYLQMNSLKPEDTAVYYCAYGWYAGYPYDYWGQGTQVTVSS | low polyreactivity
QVQLVESGGGLVQAGGSLRLSCDASGSTFYRNVIGWYRQAPGKERELVAAISSGGSTYYADSVKGRFTISRDNAKNTVYFQMNSLKPEDTAVYYCAARKRYSYDYWGQGTQVTVSS | low polyreactivity
QVQLVESGGGLVQAGGSLRLSCDASGSTFYWYAMGWYRQAPGKERELVAAITYSSGRTYYADSVKGRFTISRDNAKNTVYLQMNSLKPEDTAVYYCGWSALNGYDYWGQGTQVTVSS | high polyreactivity
QVQLVESGGGLVQAGGSLRLSCDASGSTIKYYAMGWYRQAPGTEMELVARITSDCGSTFYADSVKGRFTISRDNAKNTVYLLMNRLKPEDTAVYYCNTDYAFRHCWFYPMDYWGQGTQVTVSS | high polyreactivity
QVQLVESGGGLVQAGGSLRLSCDASGYIFSANAMGWYRQSPGKERELVAAITSSGGSTYYADSVKGRFTISRDNAKNTVYLQMNSLKPEDTAVYYCAAYSIYYRSGYPSRYRYYYWGQGTQVTVSS | high polyreactivity
QVQLVESGGGLVQAGGSLRLSCDPSGLTFNTYAMGWYRQAPGKERELVAAISSDGSTYYADSVKGRFTITRDNAKNTVYLQMNSLKPEDTAVYYCAATSFWWDLAGYYHWYDYWGQGTQVTVSS | high polyreactivity
QVQLVESGGGLVQAGGSLRLSCDPSGSIFDGYGMGWYRQAPGKERELVASITWNDGSTYYADSVKGRFTISRDNAKNTVYLQMNSLKPEDTAVYYCAADQWGYEYDYWGQGTQVTVSS | low polyreactivity
QVQLVESGGGLVQAGGSLRLSCEASGRTFDTYAMGCYRQAPGKERELVAAITTSGGTTYYADSVKGRFTISRDNAKNTVYLQMNSLKPEDTAVYYCAADPWIEYTYGSKAYYYWGQGTQVTVSS | low polyreactivity
QVQLVESGGGLVQAGGSLRLSCEASGSTFYRYAMGWYRQAPGKERELVDAISSSGGSTYYADSVKGRFTISRDNAKNTVYLQMNSLKPEDTAVYYCNASYRVRRFDYWGQGTQVTVSS | low polyreactivity
QVQLVESGGGLVQAGGSLRLSCEDSGFIFRVYAMGWYLQAPGKERELVAAINSGGSTNYADSVKGRFTISRDNAKNTVYLQMNSLKPEDTAVYYCAARVKTSYRYLRTYNYCGQGTQVTVSS | high polyreactivity
QVQLVESGGGLVQAGGSLRLSCGASGITFVRYAMGWYRQAPGKERELVAAITTSGGSTYYADSVKGRFTISRDNAKNTVYLQMNSLKPEDTAVYYCAARANAASGTFKYWGQGTQVTVSS | high polyreactivity
QVQLVESGGGLVQAGGSLRLSCGASGLTCREYAMGWYRQAPGKERELVAAITSTGGNTYYADSVKGRFPISRDNAKNTVYLQMNSLTPEDTAVYYCAARTTRRVTSGKFDYWGQGTQVTVSS | high polyreactivity
QVQLVESGGGLVQAGGSLRLSCGASGRIFWDNAMGWYRQAPGKERELVAAIDYRGGNTNYADSVKGRFTISRDNAKNTVYLQMNRLKTEDTAVYYCNAEWAVRYPGYDYWGQGTQVTVSS | low polyreactivity
QVQLVESGGGLVQAGGSLRLSCGASGRTVGGNAMGWERPAPGQERELVAAITNSASTYADSVKGRFTISRDNAQNTVYLLMNSLKPEDTAGSYCAARTLPRVYRNTFGYWGQGTQVTVSS | low polyreactivity

Sequence | polyreactivity (PSR sort gate)
QVQLVESGGGLVQAGGSLRLSCGASGSIIGSYALGWYRQAPGPERELVAAISSSGGRTYYAVSVKGRFTISRDKAKNTVYLQMNRLKPAETAVYYCNTRPGTVFRAGGDDWGQGTQVTVSS | high polyreactivity
QVQLVESGGGLVQAGGSLRLSCGASGSSFADNAMGRYRPATGTERELVDTNTGSGGSTYYADSVKGRFTISRDNAKNTVYLLMNSLKPEDTAVYYCAAEVVAWSLYEDFKTYDYWGQGTQVTVSS | low polyreactivity
QVQLVESGGGLVQAGGSLRLSCGASGYISVGYAMGWYRPAPGKERELVAAITESGGSTYYADSVKGRFTISRDNAKNTVYLQMNSLKPEDSAVYYCAADVIYEDSMDYWGQGTQVTVSS | low polyreactivity
QVQLVESGGGLVQAGGSLRLSCPASGFIFRYYAMGWYRQAPGKERELVAAISWSGGSTYYADSVKGRFTISRDSAKNTVYLQIYSLKPEDTAVYYCGAEGFSYFIYWGQGSQVTVSS | high polyreactivity
QVQLVESGGGLVQAGGSLRLSCPASGFNFPYYAKGWYRQAPGKEREFVAAISSGGNTNYADSVKGRFTISRDNAKNTVYLQMNSLKPEDTAVFYCAAGFLRYLNWSVKYDYWGQGTQVTVSS | low polyreactivity
QVQLVESGGGLVQAGGSLRLSCPASGFTFVSYAMGWYRQAPGKERELVAAISRSGGTTYYADSVKGRFTISRDNAKNTVYLQMNSLKPEDTAVYYCAADFYVFYTRYYYWGQGTQVTVSS | low polyreactivity
QVQLVESGGGLVQAGGSLRLSCPASGIILTQNAMGWYRQAPGKERELVAAITESGARTYYADSVKGRFTISRDNAKNTVYLQMISLKPEDTAVYSCNAYRYYRGQVYPFYYWGHGTQVTVSS | low polyreactivity
QVQLVESGGGLVQAGGSLRLSCPASGLIFVDNAMGWYRQAPGKERELVAAIDSGGSTNYADSVKGRFTISRDNAKNTVYLQMNRLQPEDTAVYYCAADGIYAPWYYQESVEYYFWGQGTQVTVSS | low polyreactivity
QVQLVESGGGLVQAGGSLRLSCPASGLTFGWYAMGWYRQAPGKERELVASITRRSGSTYYADSVKGRFTISRDNAKNTVYLQMNSLKPEDTAVYFWAARSRGTTRFDYWGQGTQVTVSS | high polyreactivity
QVQLVESGGGLVQAGGSLRLSCPASGRIFGTYPMGWSRQEPGKESELVARITRGSSTYYADSVKGRFTISRDNAKNTVYLQMNSLKPEDTAVYYCAAVGWGYSYRARYGYWGQGTQVTVSS | high polyreactivity
QVQLVESGGGLVQAGGSLRLSCPASGRIFPKNAMGWYRQAPGKERELVAAIDYSDGSTNYADSVKGRFTFSRDTAKNTVYLQMNSLKPDDTAVYYCAIVAVPSYDYWGQGTKVTVSS | low polyreactivity
QVQLVESGGGLVQAGGSLRLSCPASGRIFSFYALGGYRQAPGKERELVAAITYTDGSTYADSVKGRFTISRDNAKNTVYLQMNSLKPEDTAVYYCNAYRGWLLSREMDYWGQGTQVTVSS | low polyreactivity
QVQLVESGGGLVQAGGSLRLSCPASGRIFTYYTMGWYRQAPGKERELVASITGGGGRTYYADSVKGRFTISRDNAKNTVYLQMNSLKPEDTAVYYCNDRYPYPYWYTSYDYWGQGSQVTVSS | high polyreactivity
QVQLVESGGGLVQAGGSLRLSCPASGRILWFYAMGWYRQAPGKERELVAAISWNGGSTYYADSVKGRFTISRDNAKNTVYLQMNSLKPEDTAVYYCNKDPSVEWWFDYWGQGTQVTVSS | low polyreactivity
QVQLVESGGGLVQAGGSLRLSCPASGRTFSRNAMGRYRQAPGKERELVATISRRGGSTNYADSVKGRFTISRDNAKNTVYLQMNSLIPEDTAVYYCAAGYRVRDDKVYGIVGAMDYWGQGTQVTVSS | high polyreactivity
QVQLVESGGGLVQAGGSLRLSCPASGRTFWYYAMGWYRQAPGKVRELVAAITWSGSDTYYADSVKGRFTISRDNAKNTVYVQMNSLKPEDTAVYFCAAEYYYESSGYDYWGQGTQVTVSS | high polyreactivity
QVQLVESGGGLVQAGGSLRLSCPASGRTFYTNAMGWYRHAPGKERELVAAITRGGSTYYADSVKGRFTISRDNAKNTVYLQMYSLKPEDTAVYYCAAAYASSWRQRVTSEKGYYWGQGTQVTVSS | high polyreactivity
QVQLVESGGGLVQAGGSLRLSCPASGSIFYTNAMGWYRQAPVKERELVAAISRGGSTKYADSVKGRFTISRDNAKNSVYLQMNSLKPEDTAVYYCAARGTASRYLYIPYYYWGQGTQVTVSS | high polyreactivity
QVQLVESGGGLVQAGGSLRLSCPASGSIYASNTMGWYRQAPGKERELVSGITKIGSSTYYADSVKRRFTISRDNAKNTVYLQMNSLKPEDTAVYYCNAYGPTIYSSRYDYWGQGTQVTVSS | low polyreactivity
QVQLVESGGGLVQAGGSLRLSCPASGSTFGYYAMGWYRQAPGKERELVAAITYSVGGTYYADSVKGRFTISRDNAKNTVYLQMNSLKPEDTAVYSCNVDYYVPPAGVTRTGDDDYWGQGTQVTVSS | low polyreactivity
QVQLVESGGGLVQAGGSLRLSCPASGSTFKRNAMGWYRQAPGKERELVATITRRGGSTYADSVNGRFTISRDNAKNTVYLQMNSLKAEDTAVYYCARDGFSAGMDYWGQGTQVTVSS | low polyreactivity
